{"source": "patent US20190055295A1", "biological_target": "human FSH receptor (human) (UniProt P23945)", "sequence (P23945 18-695)": "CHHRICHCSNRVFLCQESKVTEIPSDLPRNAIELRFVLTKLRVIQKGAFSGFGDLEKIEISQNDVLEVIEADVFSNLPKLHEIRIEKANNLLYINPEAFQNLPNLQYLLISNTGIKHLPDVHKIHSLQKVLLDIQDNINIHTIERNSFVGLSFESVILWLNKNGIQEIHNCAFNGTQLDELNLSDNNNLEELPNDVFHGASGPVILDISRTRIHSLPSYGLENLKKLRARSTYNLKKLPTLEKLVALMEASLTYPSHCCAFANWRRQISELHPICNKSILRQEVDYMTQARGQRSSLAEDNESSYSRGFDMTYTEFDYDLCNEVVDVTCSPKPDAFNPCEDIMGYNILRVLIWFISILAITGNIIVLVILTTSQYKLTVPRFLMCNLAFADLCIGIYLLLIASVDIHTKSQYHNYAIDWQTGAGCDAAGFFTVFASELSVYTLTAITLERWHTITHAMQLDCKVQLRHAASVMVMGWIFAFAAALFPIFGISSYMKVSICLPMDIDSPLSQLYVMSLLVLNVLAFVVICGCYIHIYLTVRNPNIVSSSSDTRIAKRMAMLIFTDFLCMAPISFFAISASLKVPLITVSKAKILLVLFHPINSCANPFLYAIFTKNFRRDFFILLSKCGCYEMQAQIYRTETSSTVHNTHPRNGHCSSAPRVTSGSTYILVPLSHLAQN", "assay": "cell-based or functional assay"}
{"substance": "FSH-Fc/Fc heterodimer (from UniProt P01215 25-116; P0DOX5 223-449) (Fc fusion)", "values": [{"measurement": "50% effective concentration (EC50) of cAMP production in CHO-FSHR cells", "result": 0.204, "unit": "nM"}, {"measurement": "in vitro biological activity relative to Gonal-F (cAMP production in CHO-FSHR cells)", "result": 50, "unit": "%"}]}
